The values that follow come from article PMC5059739, “A distinct holoenzyme organization for two-subunit pyruvate carboxylase” (Nature Communications, 2016).

Data set [1] addresses Methylobacillus flagellatus pyruvate carboxylase (MfPC) α subunit, N-terminal hexa-histidine tag, co-expressed with the β subunit (Methylobacillus flagellatus). The experiment in a line: SEC; gel filtration of two-subunit PCs purified from E. coli co-expression, with Coomassie-stained SDS-PAGE of the purified complexes and of known amounts of α and β subunits; also with an extra plasmid expressing only α.

Data set [2] deals with T1, SaPC (single-chain pyruvate carboxylase) (Staphylococcus aureus, UniProt A0A0H3JRU9).
T1 construct: gene pycA; single-chain homo-tetramer, ~570 kDa by AUC; expression not described here
T1 sequence (A0A0H3JRU9 1-1150): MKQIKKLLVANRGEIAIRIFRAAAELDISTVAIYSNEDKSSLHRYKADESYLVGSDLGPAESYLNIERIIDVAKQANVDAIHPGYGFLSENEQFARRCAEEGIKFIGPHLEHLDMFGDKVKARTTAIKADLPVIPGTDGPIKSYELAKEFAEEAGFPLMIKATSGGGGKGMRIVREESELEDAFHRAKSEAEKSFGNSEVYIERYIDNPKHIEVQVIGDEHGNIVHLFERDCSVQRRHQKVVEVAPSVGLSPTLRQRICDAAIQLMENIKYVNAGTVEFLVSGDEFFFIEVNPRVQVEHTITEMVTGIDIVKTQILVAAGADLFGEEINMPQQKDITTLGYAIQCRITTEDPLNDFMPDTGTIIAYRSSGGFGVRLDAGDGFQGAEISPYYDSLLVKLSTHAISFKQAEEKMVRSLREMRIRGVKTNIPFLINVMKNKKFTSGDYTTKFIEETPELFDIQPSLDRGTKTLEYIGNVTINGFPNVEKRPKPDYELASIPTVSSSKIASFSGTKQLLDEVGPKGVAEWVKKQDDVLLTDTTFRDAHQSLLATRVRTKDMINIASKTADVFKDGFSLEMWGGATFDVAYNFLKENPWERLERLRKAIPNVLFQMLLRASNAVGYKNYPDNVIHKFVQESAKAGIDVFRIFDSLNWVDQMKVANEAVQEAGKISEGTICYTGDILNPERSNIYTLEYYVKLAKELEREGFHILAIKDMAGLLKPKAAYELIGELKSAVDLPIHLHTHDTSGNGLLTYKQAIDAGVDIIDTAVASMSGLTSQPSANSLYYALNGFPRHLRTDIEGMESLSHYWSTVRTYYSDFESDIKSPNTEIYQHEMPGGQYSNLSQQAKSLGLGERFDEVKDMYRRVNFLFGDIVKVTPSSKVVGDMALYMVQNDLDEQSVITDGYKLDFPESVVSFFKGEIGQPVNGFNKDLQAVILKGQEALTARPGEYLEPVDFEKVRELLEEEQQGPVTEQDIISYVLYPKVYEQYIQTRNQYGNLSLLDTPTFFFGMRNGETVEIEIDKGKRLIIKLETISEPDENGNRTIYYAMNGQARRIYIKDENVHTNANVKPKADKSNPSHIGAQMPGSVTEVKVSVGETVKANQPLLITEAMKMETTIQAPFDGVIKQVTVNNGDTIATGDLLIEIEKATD
Kind of data set: malate dehydrogenase-coupled PC activity with and without acetyl-CoA. The note with it: allosteric activator. The data set is classed as biochemical.

Data set [3] has as its target MfPC α subunit expressed and purified alone (pET28a, N-terminal hexa-histidine tag) (Methylobacillus flagellatus). The experiment in a line: SEC; analytical gel filtration of separately purified MfPC α and β subunits, alone and mixed in 1:2, 1:1 or 2:1 molar ratios; peak fractions on SDS-PAGE. Background: Size exclusion chromatography separates by hydrodynamic size, large species first.

Data set [4] has as its target Pseudomonas aeruginosa pyruvate carboxylase (PaPC) α subunit (Pseudomonas aeruginosa). Kind of data set: AUC; sedimentation velocity, 0.5 mg/ml, 20 °C, 42,000 r.p.m., 20 mM Tris pH 8.0, 150 mM NaCl, continuous c(s) distribution (SEDFIT).
The target in data set [5] is MfPC β subunit K581A mutant, purified alone (Methylobacillus flagellatus).
The target of data set [6] is MfPC β subunit with the surface entropy reduction mutations K419A, E421A and E422A, untagged (Methylobacillus flagellatus). The experiment in a line: crystal structure; 'wild-type' MfPC (K419A, E421A, E422A in β), 6.6 Å, space group P3(1)21, one α and two β in the asymmetric unit, α2β4 by a crystallographic two-fold axis; 2.5 mM ATP and 2.5 mM pyruvate, 1.3 M ammonium sulfate, 0.1 M sodium citrate pH 6.0.

Data set [7] concerns the target Methylobacillus flagellatus pyruvate carboxylase (MfPC) α subunit, N-terminal hexa-histidine tag, co-expressed with the β subunit (Methylobacillus flagellatus). The data set is described as above.
In data set [8] the target is MfPC β subunit with the surface entropy reduction mutations K419A, E421A and E422A, untagged (Methylobacillus flagellatus). The experiment in a line: crystal structure; mutant MfPC (B domain deletion in α; K419A, E421A, E422A in β), 3.0 Å, space group R32, one α2β4 oligomer in the asymmetric unit; sitting drop, 20 °C, 2.5 mM pyruvate, 19% PEG3350, 2% tacsimate pH 6.0, 3% ethanol.

Data set [9] addresses MfPC α subunit with the B sub-domain of BC (residues 131–201) replaced by a Gly–Ser–Ser–Gly linker (Methylobacillus flagellatus). Described as above.
Data set [10] concerns the molecule itself. Kind of data set: AUC; sedimentation velocity, 0.5 mg/ml, 20 °C, 42,000 r.p.m., 20 mM Tris pH 8.0, 150 mM NaCl, continuous c(s) distribution (SEDFIT).

Regarding “Methylobacillus flagellatus pyruvate carboxylase (MfPC) β subunit, untagged, co-expressed with the α subunit (enzyme)”, the stoichiometry N in [1] was 2 β per α.

With `CC(=O)SCCNC(=O)CCNC(=O)[C@H](O)C(C)(C)COP(=O)(O)OP(=O)(O)OC[C@H]1O[C@@H](n2cnc3c(N)ncnc32)[C@H](O)[C@@H]1OP(=O)(O)O` [acetyl-CoA], the activation entry in [2] is listed as “When acetyl-CoA is present, SaPC activity becomes comparable to those of the two-subunit PCs”.

In the case of “MfPC β subunit expressed and purified alone (pET28a, N-terminal hexa-histidine tag) (enzyme)”, in data set [3], the stoichiometry N is 2 β per α.

Take “Pseudomonas aeruginosa pyruvate carboxylase (PaPC) β subunit (enzyme)”: in data set [4], the stoichiometry N was 2 β per α.

As for “MfPC β subunit A49T mutant, purified alone (enzyme)”, the pyruvate carboxylase activity of hybrid holoenzymes (A49T and K581A β subunits mixed in a 1:1 ratio, then α subunit added), against the wild-type holoenzyme (% of wild-type activity) in data set [5] was found to be 29.

Regarding “MfPC β subunit with the surface entropy reduction mutations K419A, E421A and E422A, untagged (enzyme)”, the stoichiometry N was 2 in data set [6], 2 β per α in [7], 2 in [8] and 2 β per α in data set [9].

B1: Staphylococcus aureus pyruvate carboxylase (SaPC), single-chain (enzyme, UniProt A0A0H3JRU9 1-1150, looked up)
chain: MKQIKKLLVANRGEIAIRIFRAAAELDISTVAIYSNEDKSSLHRYKADESYLVGSDLGPAESYLNIERIIDVAKQANVDAIHPGYGFLSENEQFARRCAEEGIKFIGPHLEHLDMFGDKVKARTTAIKADLPVIPGTDGPIKSYELAKEFAEEAGFPLMIKATSGGGGKGMRIVREESELEDAFHRAKSEAEKSFGNSEVYIERYIDNPKHIEVQVIGDEHGNIVHLFERDCSVQRRHQKVVEVAPSVGLSPTLRQRICDAAIQLMENIKYVNAGTVEFLVSGDEFFFIEVNPRVQVEHTITEMVTGIDIVKTQILVAAGADLFGEEINMPQQKDITTLGYAIQCRITTEDPLNDFMPDTGTIIAYRSSGGFGVRLDAGDGFQGAEISPYYDSLLVKLSTHAISFKQAEEKMVRSLREMRIRGVKTNIPFLINVMKNKKFTSGDYTTKFIEETPELFDIQPSLDRGTKTLEYIGNVTINGFPNVEKRPKPDYELASIPTVSSSKIASFSGTKQLLDEVGPKGVAEWVKKQDDVLLTDTTFRDAHQSLLATRVRTKDMINIASKTADVFKDGFSLEMWGGATFDVAYNFLKENPWERLERLRKAIPNVLFQMLLRASNAVGYKNYPDNVIHKFVQESAKAGIDVFRIFDSLNWVDQMKVANEAVQEAGKISEGTICYTGDILNPERSNIYTLEYYVKLAKELEREGFHILAIKDMAGLLKPKAAYELIGELKSAVDLPIHLHTHDTSGNGLLTYKQAIDAGVDIIDTAVASMSGLTSQPSANSLYYALNGFPRHLRTDIEGMESLSHYWSTVRTYYSDFESDIKSPNTEIYQHEMPGGQYSNLSQQAKSLGLGERFDEVKDMYRRVNFLFGDIVKVTPSSKVVGDMALYMVQNDLDEQSVITDGYKLDFPESVVSFFKGEIGQPVNGFNKDLQAVILKGQEALTARPGEYLEPVDFEKVRELLEEEQQGPVTEQDIISYVLYPKVYEQYIQTRNQYGNLSLLDTPTFFFGMRNGETVEIEIDKGKRLIIKLETISEPDENGNRTIYYAMNGQARRIYIKDENVHTNANVKPKADKSNPSHIGAQMPGSVTEVKVSVGETVKANQPLLITEAMKMETTIQAPFDGVIKQVTVNNGDTIATGDLLIEIEKATD
notes: single-chain pyruvate carboxylase, Staphylococcus aureus; Used as a control in the ultracentrifugation
On to B1, for which the “stoichiometry N” value in data set [10] stood at 4.

A word on the stoichiometry N: it is a count of units in the complex or per binding partner.
